This note sets out measurements from paper PMC8660007 (Protein Engineering, Design and Selection, 2021).

In one test the target is Modified Phage CTPR2. Kind of test: ITC; 166.6 uM Keap1 titrated into 16.66 uM CTPR or peptide; 50 mM Tris-HCl 150 mM NaCl 0.5 mM TCEP pH 8; 20 injections of 2 ul; one-site binding model.
In test [1] the target is T1, Keap1 Kelch domain construct (residues 321-624) (UniProt Q14145 321-624).
T1 construct: Keap1 Kelch domain, residues 321-624; pNIC28-BSA4 vector with a TEV cleavage site after the His-tag; gift of Alex Bullock (Structural Genomics Consortium, Oxford); No TEV cleavage is described in the purification; also called Kelch domain of Keap1; source: E. coli C41, purified (Ni-NTA, size exclusion chromatography)
The test is described as above. Particulars: both partners purified.

T1 sequence (Q14145 321-624): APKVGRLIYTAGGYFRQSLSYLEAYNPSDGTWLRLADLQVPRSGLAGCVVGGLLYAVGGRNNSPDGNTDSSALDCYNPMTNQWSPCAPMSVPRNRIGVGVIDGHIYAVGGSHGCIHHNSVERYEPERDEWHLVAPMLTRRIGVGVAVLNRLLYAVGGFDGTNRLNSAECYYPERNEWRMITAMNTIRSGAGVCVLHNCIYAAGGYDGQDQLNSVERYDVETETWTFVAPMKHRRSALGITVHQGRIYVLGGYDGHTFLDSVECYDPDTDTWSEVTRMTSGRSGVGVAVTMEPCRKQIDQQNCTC

As to “Keap1 Kelch domain construct (residues 321-624) (from UniProt Q14145 321-624) (domain or fragment)”, in the test with Modified Phage CTPR2, the Kd stood at 22 nM.

B1: Ac-DPETGEL-NH2 (peptide)
peptide: Ac-DPETGEL-NH2
notes: peptide found by phage display (Hancock et al. 2012); also called phage display-derived peptide; phage display-derived free peptide; source: synthetic peptide (Cambridge Peptides Ltd)
On to B1, for which, in test [1], binding was characterised by a dissociation constant (Kd) of 341 nM.

B2: Ac-LDPETGELL-NH2 (peptide)
peptide: Ac-LDPETGELL-NH2
notes: phage display-derived peptide DPETGEL extended by two flanking leucines; also called modified phage display-derived peptide; Modified phage display-derived free peptide; source: synthetic peptide (Cambridge Peptides Ltd)
Consider B2, for which, in test [1], the Kd amounted to 4.65 nM.
